Test results reported in PMC11674828.

Substrate: N[C@@H](CC(=O)O)C(=O)O
Test: purified protein
Conditions: pH 8.0

| Protein | Km | kcat | kcat/Km |
| --- | --- | --- | --- |
| (Corynebacterium glutamicum ATCC 13032) (protein) chain 1: MLRTILGSKIHRATVTQADLDYVG chain 2: SVTIDADLVHAAGLIEGEKVAIVDITNGARLETYVIVGDAGTGNICINGAAAHLINPGDLVIIMSYLQATDAEAKAYEPKIVHVDADNRIVALGNDLAEALPGSGLLTSRSI | 4.3 ± 0.2 mM | 2.8 s⁻¹ | 650 M⁻¹ s⁻¹ |
| (Thermus thermophilus HB8) (protein) chain 1: MKRVMFHAKIHRATVTQADLHYVG chain 2: SVTVDQDLLDAAGILPFEQVDIYDITNGARLTTYALPGERGSGVIGINGAAAHLVKPGDLVILVAYGVFDEEEARNLKPTVVLVDERNRILEVRKG | 8.5 ± 0.1 mM | 2.2 s⁻¹ | 260 M⁻¹ s⁻¹ |
| (Escherichia coli K-12) (protein) chain 1: MIRTMLQGKLHRVKVTHADLHYEG chain 2: SCAIDQDFLDAAGILENEAIDIWNVTNGKRFSTYAIAAERGSRIISVNGAAAHCASVGDIVIIASFVTMPDEEARTWRPNVAYFEGDNEMKRTAKAIPVQVA | 7.9 ± 0.1 mM | 1.4 s⁻¹ | 180 M⁻¹ s⁻¹ |
